Data: patent US20230016396A1

Experiments:
[1] = biological target: T1, M15-L-P1-AR target polypeptide with P1 = I
T1 chain: LIAR

[2] = biological target: T2, M15-L-P1-AR target polypeptide with P1 = M
T2 chain: LMAR

[3] = biological target: T3, M15-L-P1-AR target polypeptide with P1 = A
T3 chain: LAAR

[4] = biological target: T4, M15-L-P1-AR target polypeptide with P1 = Q
T4 chain: LQAR

[5] = biological target: T5, M15-L-P1-AR target polypeptide with P1 = L
T5 chain: LLAR

[6] = biological target: T6, M15-L-P1-AR target polypeptide with P1 = V
T6 chain: LVAR

[7] = biological target: T7, M15-L-P1-AR target polypeptide with P1 = E
T7 chain: LEAR

[8] = biological target: T8, M15-L-P1-AR target polypeptide with P1 = D
T8 chain: LDAR

[9] = biological target: T9, M15-K(biotin)-AAR peptide (SEQ ID NO: 12)
T9 chain: KAAR

B1: M15-L_Z001 (first selected modified cleavase) (protein)
chain: MHKTRLVAALAAALATLAPAAWADEGMWVPQQLPEIAGALKKAGLKLDPKQLSDLTGDPMGAVVSLGGCTGSFVSPQGLVATNHHCAYGAIQLNSTPEKNLIKDGFNAPTQADELSAGPNARIYVLEGITDVTAQAKAAMAAAGNDPVARANALEAFEKKITSDCEAEPGYRCRVYSFMGGITYRLFKNLEIKDVRLVYAPPSSVGKFGGDIDMGMWPTHTGDFSFYRAYVGKDGKPAPYSKDNVPYRPKHWLKIADTPLGEGDFVMVAGYPGRTDRYALVAEFENTQNWLYPAISKAYKDQIALVEAAAKDNPEIAVKYAAALAGWNRTSKNFDGQLEGFKRNDVLAIKRREEAAVLEWLRARGKAGTPALEAHAALVKLVADTARTQERDLVLGSFNRTGIIGVAVNLYRLAIERQKPDAEREPGYQQRDLPVIEGSLKQMERRYVPAMDRQLRAYWLDRYVALPAAQHVAAVDAWLGGSDKAAAEAALARLDQSRLGSLEERLKWFNADRAAFEASTDPAIQYAVAVMPTLLAMEQQAKTRYGVALEARPRYLQAVVDYKKSKGQAVYPDANSTLRITYGHVKGYTGLNGKVYTPFTTLEEVAAKETGVEPFDNPKALLEAVAAKRYAGLADARLGTVPVNFLADLDITGGNSGSPVLDANGRLVGLAFAGTLESVASNWVFDPVLTRMISVDQRYMRWIMQEVMPAPQLLEELGVPPRQ
[1]
  cleavage of the M15-L-labeled P1 residue from the polypeptide: provided 100% cleavage for polypeptides with the following M15-L-labeled P1 residues: A, I, L, M, Q, V
[2]
  cleavage of the M15-L-labeled P1 residue from the polypeptide: provided 100% cleavage for polypeptides with the following M15-L-labeled P1 residues: A, I, L, M, Q, V
[3]
  cleavage of the M15-L-labeled P1 residue from the polypeptide: provided 100% cleavage for polypeptides with the following M15-L-labeled P1 residues: A, I, L, M, Q, V
[4]
  cleavage of the M15-L-labeled P1 residue from the polypeptide: provided 100% cleavage for polypeptides with the following M15-L-labeled P1 residues: A, I, L, M, Q, V
[5]
  cleavage of the M15-L-labeled P1 residue from the polypeptide: provided 100% cleavage for polypeptides with the following M15-L-labeled P1 residues: A, I, L, M, Q, V
[6]
  cleavage of the M15-L-labeled P1 residue from the polypeptide: provided 100% cleavage for polypeptides with the following M15-L-labeled P1 residues: A, I, L, M, Q, V

B2: M15-L_Z002 (protein)
chain: MHKTRLVAALAAALATLAPAAWADEGMWVPQQLPEIAGALKKAGLKLDPKQLSDLTGDPMGAVVSLGGCTGSFVSPQGLVATNHHCAYGAIQLNSTPEKNLIKDGFNAPTQADELSAGPNARIYVLEGITDVTAQAKAAMAAAGNDPVARANALEAFEKKITSDCEAEPGYRCRVYSFMGGITYRLFKNLEIKDVRLVYAPPSSVGKFGGDIDMGMWPTHTGDFSFYRAYVGKDGKPAPYSKDNVPYRPKHWLKIADTPLGEGDFVMVAGYPGRTDRYALVAEFENTQNWLYPAISKAYKDQIALVEAAAKDNPEIAVKYAAALAGWNRTSKNFDGQLEGFKRNDVLAIKRREEAAVLEWLRARGKAGTPALEAHAALVKLVADTARTQERDLVLGSFNRTGIIGVAVNLYRLAIERQKPDAEREPGYQQRDLPVIEGSLKQMERRYVPAMDRQLRAYWLDRYVALPAAQHVAAVDAWLGGSDKAAAEAALARLDQSRLGSLEERLKWFNADRAAFEASTDPAIQYAVAVMPTLLAMEQQAKTRYGVALEARPRYLQAVVDYKKSKGQAVYPDANSTLRITYGHVKGYTGLNGKVYTPFTTLEEVAAKETGVEPFDNPKALLEAVAAKRYAGLADARLGTVPVNFLADLDITGGNSGSPVLDANGRLVGLAFAGTLESVASNWVFDPVLTRMISVDQRYMRWIMQEVMPAPQLLEELGVPPRQ
[7]
  cleavage profile (cleavage efficiency): M15-L_Z002, having specificity towards D and E in the P1 position
[8]
  cleavage profile (cleavage efficiency): M15-L_Z002, having specificity towards D and E in the P1 position

B3: engineered dipeptidyl peptidase clone (SEQ ID NO: 6) derived from dipeptidyl peptidase from Thermomonas hydrothermalis (protein)
chain: DEGMWVPQQLPEIAGALKKAGLKLDPKQLSDLTGDPMGAVVSLGGCTGSFVSPQGLVATNHHCAYGAIQLNSTPEKNLIKDGFNAPTQADELSAGPNARIYVLEGITDVTAQAKAAMAAAGNDPVARANALEAFEKKITSDCEAEPGYRCRVYSFMGGITYRLFKNLEIKDVRLVYAPPSSVGKFGGDIDMGMWPTHTGDFSFYRAYVGKDGKPAPYSKDNVPYRPKHWLKIADTPLGEGDFVMVAGYPGRTDRYALVAEFENTQNWLYPAISKAYKDQIALVEAAAKDNPEIAVKYAAALAGWNRTSKNFDGQLEGFKRNDVLAIKRREEAAVLEWLRARGKAGTPALEAHAALVKLVADTARTQERDLVLGSFNRTGIIGVAVNLYRLAIERQKPDAEREPGYQQRDLPVIEGSLKQMERRYVPAMDRQLRAYWLDRYVALPAAQHVAAVDAWLGGSDKAAAEAALARLDQSRLGSLEERLKWFNADRAAFEASTDPAIQYAVAVMPTLLAMEQQAKTRYGVALEARPRYLQAVVDYKKSKGQAVYPDANSTLRITYGHVKGYTGLNGKVYTPFTTLEEVAAKETGVEPFDNPKALLEAVAAKRYAGLADARLGTVPVNFLADLDITGGNSGSPVLDANGRLVGLAFAVTLESVASNWVFDPVLTRMISVDQRYMRWIMQEVMPAPQLLEELGVPPRQ
[9]
  percentage of conversion to cleavage product (HPLC, UV absorbance at 254 nm): about 10% of the model peptide was converted to the cleavage product, M15-K(biotin)-A
